This is an account of results in KR20230078152A.

This test deals with human PSMA (prostate-specific membrane antigen) expressed on LNCaP cells (human) (UniProt Q04609). Nature of the test: flow cytometry on LNCaP cells, isotype control 10μg/mL, 4℃. (In flow cytometry, cells or beads pass a laser one at a time.)
Chain of human PSMA (prostate-specific membrane antigen) expressed on LNCaP cells (human) (Q04609 whole entry): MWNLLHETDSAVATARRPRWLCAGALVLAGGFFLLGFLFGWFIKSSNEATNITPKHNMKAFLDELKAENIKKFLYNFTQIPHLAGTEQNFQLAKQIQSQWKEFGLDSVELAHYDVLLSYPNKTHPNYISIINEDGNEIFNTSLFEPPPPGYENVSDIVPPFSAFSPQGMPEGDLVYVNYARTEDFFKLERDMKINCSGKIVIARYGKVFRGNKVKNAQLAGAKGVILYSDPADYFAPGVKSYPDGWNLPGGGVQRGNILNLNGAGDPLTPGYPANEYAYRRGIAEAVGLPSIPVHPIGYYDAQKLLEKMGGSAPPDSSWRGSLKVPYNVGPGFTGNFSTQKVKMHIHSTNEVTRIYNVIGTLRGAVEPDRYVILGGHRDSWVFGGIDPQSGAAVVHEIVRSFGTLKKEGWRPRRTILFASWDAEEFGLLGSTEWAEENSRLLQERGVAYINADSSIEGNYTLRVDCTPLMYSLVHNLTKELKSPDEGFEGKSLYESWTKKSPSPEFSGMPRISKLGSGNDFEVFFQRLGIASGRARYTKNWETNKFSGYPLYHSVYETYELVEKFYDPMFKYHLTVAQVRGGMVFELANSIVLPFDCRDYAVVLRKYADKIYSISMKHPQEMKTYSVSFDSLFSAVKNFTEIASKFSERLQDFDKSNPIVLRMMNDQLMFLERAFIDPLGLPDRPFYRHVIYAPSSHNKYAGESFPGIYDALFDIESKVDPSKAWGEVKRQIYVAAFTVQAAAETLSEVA

Regarding “Mouse IgG Isotype Control (ThermoFisher, cat.No.02-6502) (antibody)”, the Mean FL is 3440 Mean FL.
